T1: [35S]methionine-labeled IκB-α 1-263 (in vitro translated) (UniProt P25963 1-263, [35S]methionine label)
T1 construct: Translated in vitro from pcDNA3
T1 sequence (looked up): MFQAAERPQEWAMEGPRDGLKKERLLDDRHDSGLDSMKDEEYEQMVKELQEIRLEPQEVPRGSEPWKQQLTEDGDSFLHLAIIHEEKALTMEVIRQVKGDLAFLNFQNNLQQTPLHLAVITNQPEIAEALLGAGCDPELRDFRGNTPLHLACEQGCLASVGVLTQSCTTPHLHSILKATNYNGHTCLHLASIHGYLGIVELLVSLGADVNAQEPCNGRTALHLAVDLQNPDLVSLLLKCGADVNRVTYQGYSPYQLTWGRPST

T2: FLAG-p100 (in vitro translated) (human, UniProt Q00653 1-900)
T2 sequence: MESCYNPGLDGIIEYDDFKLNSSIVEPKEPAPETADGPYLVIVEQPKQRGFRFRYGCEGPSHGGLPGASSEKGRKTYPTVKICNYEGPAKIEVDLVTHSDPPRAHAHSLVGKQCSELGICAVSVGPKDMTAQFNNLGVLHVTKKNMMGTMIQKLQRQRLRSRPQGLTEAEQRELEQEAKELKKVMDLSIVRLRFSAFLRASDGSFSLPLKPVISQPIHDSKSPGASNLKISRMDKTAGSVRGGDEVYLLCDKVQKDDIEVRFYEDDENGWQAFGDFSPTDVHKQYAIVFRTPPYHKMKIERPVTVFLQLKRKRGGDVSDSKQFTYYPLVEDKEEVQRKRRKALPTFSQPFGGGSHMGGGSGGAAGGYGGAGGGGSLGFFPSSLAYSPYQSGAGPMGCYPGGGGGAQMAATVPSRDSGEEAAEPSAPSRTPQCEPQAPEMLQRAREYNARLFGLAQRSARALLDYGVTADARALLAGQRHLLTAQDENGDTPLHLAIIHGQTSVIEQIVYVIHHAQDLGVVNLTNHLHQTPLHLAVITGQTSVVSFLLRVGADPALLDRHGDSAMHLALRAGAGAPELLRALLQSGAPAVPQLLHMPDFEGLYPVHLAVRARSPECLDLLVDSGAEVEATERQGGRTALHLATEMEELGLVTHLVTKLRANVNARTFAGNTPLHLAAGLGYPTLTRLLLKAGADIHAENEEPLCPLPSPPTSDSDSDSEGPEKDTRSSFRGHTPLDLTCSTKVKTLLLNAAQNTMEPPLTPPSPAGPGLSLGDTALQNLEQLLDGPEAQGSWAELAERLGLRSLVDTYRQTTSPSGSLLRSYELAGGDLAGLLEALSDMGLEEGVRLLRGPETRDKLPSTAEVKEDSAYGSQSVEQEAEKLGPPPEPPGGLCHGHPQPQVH

T3: p105 (in vitro translated) (human, UniProt P19838 1-968)
T3 sequence: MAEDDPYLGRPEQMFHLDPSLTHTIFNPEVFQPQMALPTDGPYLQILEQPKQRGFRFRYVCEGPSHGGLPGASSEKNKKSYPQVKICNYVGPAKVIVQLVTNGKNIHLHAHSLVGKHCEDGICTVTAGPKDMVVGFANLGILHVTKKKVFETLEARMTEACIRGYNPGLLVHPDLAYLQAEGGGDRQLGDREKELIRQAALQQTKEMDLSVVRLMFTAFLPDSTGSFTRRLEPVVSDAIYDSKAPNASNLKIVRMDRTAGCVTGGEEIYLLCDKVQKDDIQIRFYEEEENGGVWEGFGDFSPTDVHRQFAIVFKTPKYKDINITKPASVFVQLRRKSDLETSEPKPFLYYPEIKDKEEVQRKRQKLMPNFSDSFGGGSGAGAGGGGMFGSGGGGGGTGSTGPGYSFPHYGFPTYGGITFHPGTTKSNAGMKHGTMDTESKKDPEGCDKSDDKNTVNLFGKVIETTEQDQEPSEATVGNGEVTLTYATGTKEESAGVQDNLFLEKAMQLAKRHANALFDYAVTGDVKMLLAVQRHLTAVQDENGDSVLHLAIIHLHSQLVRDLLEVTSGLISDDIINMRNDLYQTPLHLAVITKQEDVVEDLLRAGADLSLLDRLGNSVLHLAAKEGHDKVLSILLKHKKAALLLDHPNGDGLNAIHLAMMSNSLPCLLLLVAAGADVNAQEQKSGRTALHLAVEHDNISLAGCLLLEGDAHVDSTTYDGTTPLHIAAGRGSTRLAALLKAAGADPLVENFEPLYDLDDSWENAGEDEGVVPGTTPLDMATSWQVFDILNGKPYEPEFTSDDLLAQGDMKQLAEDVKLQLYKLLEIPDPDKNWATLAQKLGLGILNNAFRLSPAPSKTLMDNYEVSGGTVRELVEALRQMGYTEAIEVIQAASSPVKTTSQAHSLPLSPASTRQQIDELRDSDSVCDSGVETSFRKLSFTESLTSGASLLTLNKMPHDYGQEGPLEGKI

T4: GST-IκB-α (UniProt P25963 1-317)
T4 construct: also called pGEX-2T-IκB-α product; not shown: glutathione S-transferase (GST) encoded by pGEX-2T
T4 sequence: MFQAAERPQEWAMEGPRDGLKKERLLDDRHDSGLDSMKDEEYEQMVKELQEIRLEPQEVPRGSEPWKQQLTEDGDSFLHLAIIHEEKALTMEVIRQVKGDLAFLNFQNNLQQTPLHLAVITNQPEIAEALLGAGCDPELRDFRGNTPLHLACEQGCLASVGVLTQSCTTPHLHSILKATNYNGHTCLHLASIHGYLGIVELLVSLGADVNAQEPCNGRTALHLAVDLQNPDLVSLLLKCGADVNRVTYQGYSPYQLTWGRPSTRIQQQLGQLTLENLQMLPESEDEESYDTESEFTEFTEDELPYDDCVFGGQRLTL


Tests used:
GST [1] = biological target: T5, GST (UniProt P08515 1-218 = GST); experiment: GST pulldown of [35S]-labeled in vitro translated protein, autoradiography
T5 construct: Negative control in the pulldowns; also called GST protein; GST alone
Description: (§1) The pcDNA3 plasmids expressing the IκB genes under the T7 promoter were used as templates to translate in vitro the [³⁵S]methionine-labeled IκB proteins by using the TNT Quick Coupled transcription/translation systems (Promega). Aliquots (10 μl) of translation mixture were incubated with GST-Tat or GST proteins (10 μg) in 500 μl of binding buffer supplemented with 1 μg/μl of bovine serum albumin on a rocking platform for 3 h at room temperature.

[2] = biological target: T1, [35S]methionine-labeled IκB-α 1-263 (in …); experiment: GST-Tat pulldown of [35S]-labeled in vitro translated protein, autoradiography
Description: as §1

[3] = biological target: T2, FLAG-p100 (in vitro translated); experiment: GST-Tat pulldown of in vitro translated protein, anti-FLAG Western blot
Description: (§2) The proteins were resolved on 10% SDS-PAGE, transferred to polyvinylidene difluoride membranes, and analyzed by immunoblotting with the indicated antibodies. The pcDNA3 plasmids expressing the IκB genes under the T7 promoter were used as templates to translate in vitro the [³⁵S]methionine-labeled IκB proteins by using the TNT Quick Coupled transcription/translation systems (Promega). Aliquots (10 μl) of translation mixture were incubated with GST-Tat or GST proteins (10 μg) in 500 μl of binding buffer supplemented with 1 μg/μl of bovine serum albumin on a rocking platform for 3 h at room temperature.

[4] = biological target: T3, p105 (in vitro translated); experiment: GST-Tat pulldown of in vitro translated protein, anti-p105 Western blot
Description: as §2

GST [5] = biological target: T5, GST; experiment: GST pulldown from extracts of transfected HeLa cells, anti-FLAG Western blot
GST-IκB-α = biological target: T4, GST-IκB-α; experiment: GST-IκB-α pulldown from extracts of transfected HeLa cells, anti-FLAG Western blot

T5 sequence (P08515 whole entry): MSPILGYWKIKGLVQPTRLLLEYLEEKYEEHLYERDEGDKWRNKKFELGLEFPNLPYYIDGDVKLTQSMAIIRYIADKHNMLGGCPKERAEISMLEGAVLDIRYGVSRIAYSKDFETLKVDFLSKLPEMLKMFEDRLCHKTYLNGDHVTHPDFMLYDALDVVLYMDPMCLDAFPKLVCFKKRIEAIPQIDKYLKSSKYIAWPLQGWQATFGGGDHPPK

Row | Binder | binding result (GST [1]) | binding result (GST [5]) | other results
1 | [35S]methionine-labeled IκB-α 72-287 (in vitro translated) (other, [35S]methionine label) EDGDSFLHLAIIHEEKALTMEVIRQVKGDLAFLNFQNNLQQTPLHLAVITNQPEIAEALLGAGCDPELRDFRGNTPLHLACEQGCLASVGVLTQSCTTPHLHSILKATNYNGHTCLHLASIHGYLGIVELLVSLGADVNAQEPCNGRTALHLAVDLQNPDLVSLLLKCGADVNRVTYQGYSPYQLTWGRPSTRIQQQLGQLTLENLQMLPESEDEE | no binding | – | –
2 | [35S]methionine-labeled IκB-α 72-287 L(272,274,277)A (in vitro translated) (other, UniProt P25963 72-287, looked up, [35S]methionine label, range 72-287) EDGDSFLHLAIIHEEKALTMEVIRQVKGDLAFLNFQNNLQQTPLHLAVITNQPEIAEALLGAGCDPELRDFRGNTPLHLACEQGCLASVGVLTQSCTTPHLHSILKATNYNGHTCLHLASIHGYLGIVELLVSLGADVNAQEPCNGRTALHLAVDLQNPDLVSLLLKCGADVNRVTYQGYSPYQLTWGRPSTRIQQQLGQATAENAQMLPESEDEE | no binding | – | –
3 | [35S]methionine-labeled IκB-α 120-317 (in vitro translated) (other, UniProt P25963 120-317, looked up, [35S]methionine label, Translated in vitro from pcDNA3) ITNQPEIAEALLGAGCDPELRDFRGNTPLHLACEQGCLASVGVLTQSCTTPHLHSILKATNYNGHTCLHLASIHGYLGIVELLVSLGADVNAQEPCNGRTALHLAVDLQNPDLVSLLLKCGADVNRVTYQGYSPYQLTWGRPSTRIQQQLGQLTLENLQMLPESEDEESYDTESEFTEFTEDELPYDDCVFGGQRLTL | no binding | – | –
4 | [35S]methionine-labeled IκB-α 243-317 (in vitro translated) (other, UniProt P25963 243-317, looked up, [35S]methionine label, Translated in vitro from pcDNA3) VNRVTYQGYSPYQLTWGRPSTRIQQQLGQLTLENLQMLPESEDEESYDTESEFTEFTEDELPYDDCVFGGQRLTL | no binding | – | –
5 | GST-Tat (other, also called GST-Tat fusion protein from pGEX-2T-Tat; not shown: glutathione S-transferase (GST) encoded by pGEX-2T) MEPVDPRLEPWKHPGSQPKTACTNCYCKKCCFHCQVCFITKALGISYGRKKRRQRRRAHQNSQTHQASLSKQPTSQPRGDPTGPKE | – | – | binding result [2]: no binding; binding result [3]: no binding; binding result [4]: no binding
6 | FLAG-Tat R(49-57)A (p3XFLAG-CMV-Tat R(49-57)A) (other) MEPVDPRLEPWKHPGSQPKTACTNCYCKKCCFHCQVCFITKALGISYGAKKAAQAAAAHQNSQTHQASLSKQPTSQPRGDPTGPKE | – | no binding | binding result (GST-IκB-α): no binding
7 | FLAG-Tat (p3XFLAG-CMV-Tat, wild type) (other, Expressed in transfected HeLa cells (or MEFs); also called wild type Tat) MEPVDPRLEPWKHPGSQPKTACTNCYCKKCCFHCQVCFITKALGISYGRKKRRQRRRAHQNSQTHQASLSKQPTSQPRGDPTGPKE | – | no binding | –
8 | FLAG-Tat C(22,25,27)A (p3XFLAG-CMV-Tat C(22,25,27)A) (other, Expressed in transfected HeLa cells) MEPVDPRLEPWKHPGSQPKTAATNAYAKKCCFHCQVCFITKALGISYGRKKRRQRRRAHQNSQTHQASLSKQPTSQPRGDPTGPKE | – | no binding | –
